± gives the uncertainty stated by the source.

This data set is described as follows: abundance fitness (aPCA) (normalised: wild type 0, dead -1); higher = more abundant; growth selection in yeast, the domain comes from the species named. The settings on record: Homo sapiens.
As to “Transcriptional activator Myb V193R, P10242”, the abundance fitness is -0.084 ± 0.059.
Under “Transcriptional activator Myb V193S, P10242” stands -0.11 ± 0.066; under “Transcriptional activator Myb V193T, P10242”, -0.018 ± 0.11.
Under “Transcriptional activator Myb V193W, P10242” stands -0.075 ± 0.068; under “Transcriptional activator Myb V193Y, P10242”, -0.117 ± 0.23.
Next, “Transcriptional activator Myb W147A, P10242”: -0.681 ± 0.043; “Transcriptional activator Myb W147C, P10242”: -0.638 ± 0.042; “Transcriptional activator Myb W147D, P10242”: -0.699 ± 0.052.
Substance “Transcriptional activator Myb W147E, P10242” gave an abundance fitness of -0.563 ± 0.058.
“Transcriptional activator Myb W147F, P10242” returned an abundance fitness of 0.081 ± 0.038.
Under “Transcriptional activator Myb W147G, P10242” stands -0.699 ± 0.036; under “Transcriptional activator Myb W147I, P10242”, -0.406 ± 0.043; under “Transcriptional activator Myb W147K, P10242”, -0.674 ± 0.06.
Under “Transcriptional activator Myb W147L, P10242” stands -0.434 ± 0.035; under “Transcriptional activator Myb W147M, P10242”, -0.274 ± 0.048.
Under “Transcriptional activator Myb W147N, P10242” stands -0.65 ± 0.042.
Take “Transcriptional activator Myb W147P, P10242”: the abundance fitness is -0.532 ± 0.052.
“Transcriptional activator Myb W147Q, P10242” displayed an abundance fitness of -0.593 ± 0.055.
Under “Transcriptional activator Myb W147R, P10242” stands -0.824 ± 0.039; under “Transcriptional activator Myb W147S, P10242”, -0.63 ± 0.036.
Under “Transcriptional activator Myb W147T, P10242” stands -0.542 ± 0.044; under “Transcriptional activator Myb W147V, P10242”, -0.65 ± 0.036; under “Transcriptional activator Myb W147Y, P10242”, -0.22 ± 0.045.
“Transcriptional activator Myb W166A, P10242” gave an abundance fitness of -0.467 ± 0.097.
Under “Transcriptional activator Myb W166C, P10242” stands -0.566 ± 0.093; under “Transcriptional activator Myb W166D, P10242”, -0.687 ± 0.15.
“Transcriptional activator Myb W166F, P10242” had an abundance fitness of -0.474 ± 0.14.
“Transcriptional activator Myb W166G, P10242” registered an abundance fitness of -0.543 ± 0.056.
Under “Transcriptional activator Myb W166H, P10242” stands -0.455 ± 0.17; under “Transcriptional activator Myb W166I, P10242”, -0.834 ± 0.17.
Under “Transcriptional activator Myb W166K, P10242” stands -0.786 ± 0.2; under “Transcriptional activator Myb W166L, P10242”, -0.986 ± 0.14.
Next, “Transcriptional activator Myb W166M, P10242”: -0.708 ± 0.15; “Transcriptional activator Myb W166N, P10242”: -0.349 ± 0.2.
Substance “Transcriptional activator Myb W166P, P10242” gave an abundance fitness of -0.359 ± 0.15.
Turning to “Transcriptional activator Myb W166Q, P10242”, the abundance fitness was -0.708 ± 0.1.
Under “Transcriptional activator Myb W166R, P10242” stands -0.761 ± 0.062; under “Transcriptional activator Myb W166S, P10242”, -0.615 ± 0.091; under “Transcriptional activator Myb W166T, P10242”, -0.63 ± 0.11.
Next, “Transcriptional activator Myb W166V, P10242”: -0.615 ± 0.075; “Transcriptional activator Myb W166Y, P10242”: -0.377 ± 0.14.
As for “Transcriptional activator Myb W185A, P10242”, the abundance fitness is -0.736 ± 0.071.
Next, “Transcriptional activator Myb W185C, P10242”: -0.755 ± 0.12; “Transcriptional activator Myb W185D, P10242”: -0.658 ± 0.17; “Transcriptional activator Myb W185E, P10242”: -0.614 ± 0.068.
Under “Transcriptional activator Myb W185F, P10242” stands -0.037 ± 0.075; under “Transcriptional activator Myb W185G, P10242”, -0.702 ± 0.046.
Under “Transcriptional activator Myb W185K, P10242” stands -0.553 ± 0.11; under “Transcriptional activator Myb W185L, P10242”, -0.509 ± 0.067; under “Transcriptional activator Myb W185M, P10242”, -0.327 ± 0.13.
Regarding “Transcriptional activator Myb W185N, P10242”, the abundance fitness is -0.55 ± 0.14.
Next, “Transcriptional activator Myb W185P, P10242”: -0.688 ± 0.15; “Transcriptional activator Myb W185Q, P10242”: -1.05 ± 0.25; “Transcriptional activator Myb W185R, P10242”: -0.686 ± 0.066.
Next, “Transcriptional activator Myb W185S, P10242”: -0.648 ± 0.083.
Next, “Transcriptional activator Myb W185T, P10242”: -0.705 ± 0.12.
Take “Transcriptional activator Myb W185V, P10242”: the abundance fitness was -0.246 ± 0.053.
Under “Transcriptional activator Myb W185Y, P10242” stands -0.034 ± 0.14; under “Transcriptional activator Myb Y156A, P10242”, -0.056 ± 0.049.
Under “Transcriptional activator Myb Y156C, P10242” stands -0.069 ± 0.076; under “Transcriptional activator Myb Y156D, P10242”, -0.049 ± 0.086; under “Transcriptional activator Myb Y156E, P10242”, -0.124 ± 0.055.
Next, “Transcriptional activator Myb Y156F, P10242”: 0.091 ± 0.11; “Transcriptional activator Myb Y156G, P10242”: -0.237 ± 0.034.
For the substance “Transcriptional activator Myb Y156H, P10242”, the abundance fitness was -0.021 ± 0.11.
Under “Transcriptional activator Myb Y156I, P10242” stands -0.061 ± 0.13; under “Transcriptional activator Myb Y156K, P10242”, -0.13 ± 0.062.
Under “Transcriptional activator Myb Y156L, P10242” stands 0.004 ± 0.047; under “Transcriptional activator Myb Y156N, P10242”, -0.33 ± 0.12; under “Transcriptional activator Myb Y156P, P10242”, -0.859 ± 0.1.
Next, “Transcriptional activator Myb Y156Q, P10242”: -0.014 ± 0.073.
Regarding “Transcriptional activator Myb Y156R, P10242”, the abundance fitness is -0.102 ± 0.037.
Under “Transcriptional activator Myb Y156S, P10242” stands -0.036 ± 0.047; under “Transcriptional activator Myb Y156T, P10242”, -0.09 ± 0.072.
Next, “Transcriptional activator Myb Y156V, P10242”: -0.056 ± 0.046; “Transcriptional activator Myb Y156W, P10242”: -0.074 ± 0.046; “Transcriptional activator Myb Y198A, P10242”: 0.01 ± 0.086.
As for “Transcriptional activator Myb Y198C, P10242”, the abundance fitness was -0.16 ± 0.14.
Under “Transcriptional activator Myb Y198D, P10242” stands -0.035 ± 0.12; under “Transcriptional activator Myb Y198E, P10242”, 0.057 ± 0.099.
Under “Transcriptional activator Myb Y198F, P10242” stands -0.033 ± 0.17; under “Transcriptional activator Myb Y198G, P10242”, -0.041 ± 0.065; under “Transcriptional activator Myb Y198H, P10242”, -0.145 ± 0.2.
Under “Transcriptional activator Myb Y198I, P10242” stands 0.093 ± 0.12.
Take “Transcriptional activator Myb Y198K, P10242”: the abundance fitness is -0.011 ± 0.13.
Under “Transcriptional activator Myb Y198L, P10242” stands 0.027 ± 0.089.
Under “Transcriptional activator Myb Y198M, P10242” stands -0.01 ± 0.1; under “Transcriptional activator Myb Y198N, P10242”, 0.067 ± 0.11; under “Transcriptional activator Myb Y198P, P10242”, 0.016 ± 0.14.
Under “Transcriptional activator Myb Y198Q, P10242” stands -0.02 ± 0.1; under “Transcriptional activator Myb Y198R, P10242”, 0.054 ± 0.063.
In turn, “Transcriptional activator Myb Y198S, P10242” registered an abundance fitness of 0.025 ± 0.065.
Next, “Transcriptional activator Myb Y198T, P10242”: -0.071 ± 0.1; “Transcriptional activator Myb Y198V, P10242”: -0.042 ± 0.069.
Next, “Transcriptional activator Myb Y198W, P10242”: -0.133 ± 0.095.

These data come from the Human Domainome abundance scans (Beltran et al. 2025).
